Laboratory results as given in patent publication US20250186614A1, “COMPACT DRUG RESPONSIVE DOMAINS FOR REGULATION OF FUNCTION/ABUNDANCE AND DELIVERY OF POLYPEPTIDE PAYLOADS” (OBSIDIAN THERAPEUTICS, INC., priority 2022, published 2025).
Changes are numbered by the printed parent chain. Numbers in names are those of the source. Read-outs that look alike come from different tables or passages of the source.

B1: FKBP-174 (protein)
chain: HCPIKGRKGDVLHAHYTGKLEDGTEFDSSLPRNQPFVFSLGTGEVIKGWDQGLLGMCEGEKRKLVIPSELGYGERGWPPKIPGGATLVFEGELLKIER
modifications: Description of sequence: Construct Name: FKBP-174; Mutation(s): Q72R Q84E A117W DRD M54A S36G V131G
B2: FKBP-196 (protein)
chain: B1 chain with G6S, A14M, V45R, G91V, I96V
modifications: Description of sequence: Construct Name: FKBP-196; Mutation(s): Q72R Q84E A117W V85R DRD I136V
B3: FKBP-160 (protein)
chain: B1 chain with G6S, V45R, G91V
modifications: Description of sequence: Construct Name: FKBP-160; Mutation(s): Q72R Q84E A117W V85R DRD M54A
B4: FKBP-192: FKBP13 DRD-AcGFP construct of Table 10 (protein)
chain: B1 chain with G6S, A14M, P35L, V45R, G91V
modifications: Description of sequence: Construct Name: FKBP-192; Mutation(s): Q72R Q84E A117W V85R DRD P75L
B5: FKBP-199: FKBP13 DRD-AcGFP construct of Table 10 (protein)
chain: B1 chain with G6S, A14M, V45R, E58L, G91V
modifications: Description of sequence: Construct Name: FKBP-199; Mutation(s): Q72R Q84E A117W V85R DRD E98L
B6: FKBP-201: FKBP13 DRD-AcGFP construct of Table 10 (protein)
chain: B1 chain with G6S, H13L, A14M, V45R, G91V
modifications: Description of sequence: Construct Name: FKBP-201; Mutation(s): Q72R Q84E A117W V85R DRD H53L
B7: FKBP-194 (protein)
chain: B1 chain with G6S, A14M, V45R, L64V, G91V
modifications: Description of sequence: Construct Name: FKBP-194; Mutation(s): Q72R Q84E A117W V85R DRD L104V
B8: FKBP-184 (protein)
chain: B1 chain with V45R
modifications: Description of sequence: Construct Name: FKBP-184; Mutation(s): Q72R Q84E A117W V85R DRD M54A S36G V131G
B9: FKBP-190 (protein)
chain: B1 chain with G6S, V45R, F89T, G91V
modifications: Description of sequence: Construct Name: FKBP-190; Mutation(s): Q72R Q84E A117W V85R DRD M54A F129T
B10: FKBP-200: FKBP13 DRD-AcGFP construct of Table 10 (protein)
chain: B1 chain with G6S, A14M, D22S, V45R, G91V
modifications: Description of sequence: Construct Name: FKBP-200; Mutation(s): Q72R Q84E A117W V85R DRD D62S
B11: FKBP-183 (protein)
chain: B1 chain with G6S, V45R, G91V, L93G
modifications: Description of sequence: Construct Name: FKBP-183; Mutation(s): Q72R Q84E A117W V85R DRD M54A L133G
B12: FKBP-180 (protein)
chain: B1 chain with G6S, F89T, G91V
modifications: Description of sequence: Construct Name: FKBP-180; Mutation(s): Q72R Q84E A117W DRD M54A F129T
B13: FKBP-193 (protein)
chain: B1 chain with G6S, A14M, V45R, D50A, G91V
modifications: Description of sequence: Construct Name: FKBP-193; Mutation(s): Q72R Q84E A117W V85R DRD D90A
B14: FKBP-161 (protein)
chain: B1 chain with G6S, A14S, V45R, G91V
modifications: Description of sequence: Construct Name: FKBP-161; Mutation(s): Q72R Q84E A117W DRD M54S V85R
B15: FKBP-176 (protein)
chain: B1 chain with G6S, G76E, G91V
modifications: Description of sequence: Construct Name: FKBP-176; Mutation(s): Q72R Q84E A117W DRD M54A G116E
B16: FKBP-179 (protein)
chain: B1 chain with G6S, H13G, R32L, G91V
modifications: Description of sequence: Construct Name: FKBP-179; Mutation(s): Q72R Q84E A117W DRD M54A H53G R72L
B17: FKBP-175 (protein)
chain: B1 chain with G6S, D10A, T17I, G91V, I96L
modifications: Description of sequence: Construct Name: FKBP-175; Mutation(s): Q72R Q84E A117W DRD M54A D50L T57I I136L
B18: FKBP-198: FKBP13 DRD-AcGFP construct of Table 10 (protein)
chain: B1 chain with G6S, A14M, V45R, K61W, G91V
modifications: Description of sequence: Construct Name: FKBP-198; Mutation(s): Q72R Q84E A117W V85R DRD K101W
B19: FKBP-191: FKBP13 DRD-AcGFP construct of Table 10 (protein)
chain: B1 chain with G6S, G9S, A14M, V45R, G91V
modifications: Description of sequence: Construct Name: FKBP-191; Mutation(s): Q72R Q84E A117W V85R DRD G49S

Experiment: Example 4: dose response of FKBP constructs 160-255, Ec50, Ec90 and fold change (raw and normalized to mCherry)
Format: cell-based
Conditions: for FC (fold change): fold change during initial analysis
Method: Additional experiments were performed for constructs FKBP-160-292.

[1] = FKBP constructs 160-255, not normalized, read-out: EC90
[2] = normalized to mCherry, read-out: EC90 (Norm)

Molecule | FC (fold change) | EC90 [1] | EC90 [2]
B1 | 0.9 | – | –
B2 | 34.7 | 115 nM | 113 nM
B3 | 25.7 | 42.2 nM | 48.2 nM
B4 | 55.0 | 230 nM | 228 nM
B5 | 27.1 | 71.7 nM | 67.5 nM
B6 | 33.1 | 144 nM | 153 nM
B7 | 24.8 | 102 nM | 122 nM
B8 | 1 | – | –
B9 | 0.9 | – | –
B10 | 33.9 | 160 nM | 150 nM
B11 | 4 | – | –
B12 | 1.2 | – | –
B13 | 37.8 | 13000 nM | 15000 nM
B14 | 32.3 | 512 nM | 541 nM
B15 | 6.8 | – | –
B16 | 3.1 | – | –
B17 | 7.25 | – | –
B18 | 54.3 | 253 nM | 274 nM
B19 | 50.6 | 367 nM | 391 nM
